In a protein production outcome set (Wang et al. 2014):

Assay: label from the status in PepcDB records

With “MGNNFAQLKRLINFFRTVILPARISQLILQTFLKWQKDNCMDMGAALAYYALFSLFPICLVMLSIAGRLLGADSNYYLQLISFAQNILPEQPFKVFQQALTNLNQSSFSAGLIGFGILVLTASRIFDALNQSVKKIWSVVHQPKENIGVKHHAFNFIRNKILAFLLVLSTVMVFLLSIFANLAAKIFLTVLAEFGQSIPWVTFDSLGLITTLQTSISYFLITVVIITLFKVLPPVRLQWWDIFPGAILTAATMMALQNAVGSGIIRIGENLQAYGVVGNVMVLLLWIYLIFQVFFIGCEFTFVFTYIFGSRHQKEKPF” the protein production was “failed”.
With “MRLVQLSRHSIAFPSPEGALREPNGLLALGGDLSPARLLMAYQRGIFPWFSPGDPILWWSPDPRAVLWPESLHISRSMKRFHKRSPYRVTMNYAFGQVIEGCASDREEGTWITRGVVEAYHRLHELGHAHSIEVWREBELVGGMYGVAQGTLFCGESMFSRMENASKTALLVFCEEFIGHGGKLIDCQVLNDHTASLGACEIPRRNYLNYLNQMRLGRLPNNFWVPRCLFSPQE” the protein production was “not failed”.
With “MGHHHHHHSHGQQSVSNKLLAWSGVLEWQEKPKPASVDANTKLTRSLPCQVYVNHGENLKTEQWPQKLIMQLIPQQLLTTLGPLFRNSRMVQFHFTNKDLESLKGLYRIMGNGFAGCVHFPHTAPCEVRVLMLLYSSKKKIFMGLIPYDQSGFVNGIRQVITN” the protein production was “not failed”.
With “MSALSSEGFFLEKCTHFFSDKKVVFFIATLCCLLWGSAYPAIKNGYELFHIADDDIPGKLVFAGYRFAFAGLLLALAVLSGRSIGRFQRGQLAQLTILGTFQTSLQYVFFYIGLAYTTGVKGSIMNATSTFFSVLLAHYLYQNDKLNINKIIGCILGFAGVMAVNINSNGMNIGFTLLGDGFVVIAAFILSASTIYGKRISQTMDPTVMTGYQLAIGGIILTISGYCTGGSLIIPDWRAVLMLGYLILLSSAAFSLWSQLLKYNRVGMVAPFNFLIPVSGTLLSALFLNESILEWKYFFALILVCSGIWLVNRVVKTRSGK” the protein production was “failed”.
In the case of “MLNNKRLFTSESVTEGHPDKIADQVSDAILDAILKDDPNARVACETTVTTGMALIAGEISTTTYVDIPKVVRETIKEIGYTRAKYGYDYETMAILTAIDEQSPDIAQGVDKALEYRDKDSEEEIEATGAGDQGLMFGYATNETETYMPLAIYLSHQLAKRLSDVRKDGTLNYLRPDGKVQVTVEYDENDNPVRIDTIVVSTQHAEDVTLEQIQEDIKAHVIYPTVPENLINEQTKFYINPTGRFVIGGPQGDAGLTGRKIIVDTYGGYARHGGGCFSGKDPTKVDRSAAYAARYVAKNIVAAGLADQCEVQLAYAIGVAEPVSIAIDTFGTGKVSEGQLVEAVRKHFDLRPAGIIKMLDLKQPIYKQTAAYGHFGRTDVLFPWEKLDKVEELKDAVK”, the protein production is reported as “failed”.
With “MTNGGGGMSSGEGFRRRSSGEGFPAREFRWWVSGDRVFPRGFFGEGVQVGVPTVVSGEGVPAKVPGGDFSGKKVPAVVFRRVSSSDGGGRGSGGGGGGGSGLGW” the protein production was “failed”.
In the case of “MDNSLLSEIWRQSLAFPWLSAVILNSFLLALAAIAPKKLLTPWGYGHAWVLGVIIWAALGWRGYLVVLAYFFVGSAVTRIGQKEKEAAGIAEKRSGQRGPENVWGSALTAALCALAIAFGPEPWQLWLALGYVASFSTKLSDTTASEVGKAYGKNTFLITTLQPVPRGTEGAVSVEGTLAGFAAGLALAVLGYGVGLISFGGIIFSTLAAFIATNLESVIGATLQNKWPWLTNEVVNGINTFLGAAIAIGIEATAQLI”, the protein production is reported as “failed”.
For “MEMVNAEAKQSVPLLTPYKMGRFNLSHRVVLAPLTRQKSYGSVPQPHAILYYSQRTSPGGFLIAEATGVSDTAQGYPDTPGIWTKEHVEAWKPIVDAVHAKGGIFFCQIWHVGRVSNRGFQPRRQAPISCTGKPIMPQMRANGIDEARFTPPRRLSIEEIPGIVNDFRLAARNAMEAGFDGVEIHGAHGYLIDQFMKDKVNDRTDEYGGSLQNRCKFALEVVDAVAKEIGPDRVGIRLSPFADYMESGDTNPEALGLYMVESLNKYGILYCHMIEPRMKTVGEIAACSHTLMPMREAFKGTFISAGGFTREDGNEAVAKGRTDLVAYGRWFLANPDLPKRFQLDAPLNKYNRSTFYTSDPVVGYTDYPSLESTA”, the protein production was “failed”.
With “MSLKVPGALPLLFLAACSHLPAKTPLTAEKPAEKKESEQSRVPSQDLTPSMLFDFLLAETALQRGDTEIGLRTYLKLAKNTQDPRVAQRATEAALQARQPAFALEAAKIWTELDPESIPARQMMAALLVHFDRLDEARPHLEKLLAVAGDKIDDAFMQLNSLLVRSPNKNAIFELVKQLAQPYPDLPEAHFAESQAAWFAERFDIALEEMKKALALRPEWEMAAIYEGRILSRESNARAIEFFDDYLKRYPKANDTRITYARLLLAERDYSKAREQFQKLLTENPDNPDVAIAVGLLSLELQNYDVAESNFKRALELGYRDPGMVRFYLGGISEKKQQIPQALNWYRSVTEGTQFIPAQIKYAILLSRTGKTKEGLHHLQQLPVANDQQRAQVIIAEAQLLRESGAYKKAFQLLSSSLEKLPDSPELLYDRALAAEKIGKADIMEQDLRKLIELRPDHAHAYNALGYGIAEHSSKRLPEALELIEKAIKLSPIDPYIIDSLGWVHYRMGDINQGLSYLRQAFAMNPDPEIAAHLGEVLWVQGMKDEAKEIWQTALKNHPGNEALIGVMKKFMK” the protein production was “failed”.
In the case of “MAALSGVFVWDEERIQEEELQRSINEMKRLEEMSNIFQSSGVENYPPEPKSPAGGNEKSKDKEEPWEMVMDKKHFKLWRRPITGTHLYQYRVFGTYTDVTPRQFFNVQLDTEYRKKWDALVIKLEVIERDAVSGSEVLHWVTHFPYPMYSRDYVYVRRYSVDQENNVMVLVSRAVEHPSVPESPEFVRVRSYESQMVIRPHKSFDENGFDYLLTYSDNPQTVFPRYCVSWMVSSGMPDFLEKLHMATLKAKNMEIKVKDYISAKPLEMSSEAKATAPSPERKNEGSCGPARIEYA”, the protein production is reported as “failed”.
With “MSLILESLVTTLDEQGRINLAPLGPIVLPPQSPGGLPQFLLRPYEGSTTCDNLLASGNAVIHVIDDALLIAKTAIGKVDASDLVVPIPGLEDTHVRLKRCHRWFAVRVTQRAGTPPRHELTARCLASGLVDPFFGFNRAKHAVIEAAVAATRLHLLPPEEIEEELERARIAIEKTGGEPEREALQLIRRHVRESSISEGHHHHHH” the protein production was “not failed”.
For “MASKITQPDKYSGFLNNYSDLKETTSATGKPVLRWVDPSFDQSKYDSIVWNPITYYPVPKPSTQVGQKVLDKILNYTNTEMKEAIAQRKPLVTTAGPRSLIFRGAITGVDTSKEGLQFYEVVPVALVVAGTQMATGHRTMDTRLYFEGELIDAATNKPVIKVVRQGEGKDLNNESTPMAFENIKQVIDDMATDATMFDVN”, the protein production was “failed”.
For “MIKKTIGGIIPIFTAVFIPASAGAADLMLAQEYKGQDIAGWAMSEKLDGVRAYWDGKHLMSRQGYAFAPPKGFTAQFPPYPLDGELYSGRGQFEQISATVRSVSSDWRGIRLHVFDVPKAQGNLYQRLAVATQWLKTHPNAPITIIPQIKVRDRQHAMDFLKQIEAQGGEGVMLRQPESRYSGGRSSQLLKLKSQYDDECTVTRHYEGKGRNAGRLGAVGCKNRHGEFRIGSGFKDKDRDNPPKIGTLITYRYRGFTRKGTPKFATFVRVRTDR”, the protein production was “failed”.
For “MVEADRPGKLFIGGLNTETNEKALEAVFGKYGRIVEVLLMKDRETNKSRGFAFVTFESPADAKDAARDMNGKSLDGKAIKVEQATKPSFE”, the protein production was “failed”.
With “MFTFISIMAVGVLIGYPLRHKSQVRKITPLIHIVVCLLLFLLGLSIGLNRLIIDNLGYFCGQAAVISSLSILGSMMASLAVYHIFF” the protein production was “failed”.
In the case of “MTKIPMFELEEAIDRQPLTVAPTLPVAQVLAVMERQHSSYVLLMESNQTLVGIFTERDLVRLTAIGITITSTPIEEVATSTVTTIQESDIYDVIRTLNLFRQYNVRHLPVVNATHQLIGIMTYEGIRRLLKPIDLLRLWRVSEVMVKSIICADRYQSALSLAELMSDRLISCVVITEKDPSGFPKPIGLVTERDILHLQVQGADLSQTIAADFMGSPPVFIQASDTLWQANQYMRARKIRRLLVVDERNIMVGLLTQTSLIHMIDPVEATLTIETLQQMVGERTVALDAANEKLERKALERKRAKAALQQQIYRERLVNRTAQRIRESLQLDEILVTTVSEVRQFLKAERVLIYRFQPNQQGAIAAESTDSNQTLIQGNAELEAILQEIDPTFYSCDRIHSIPDLQAQGLELTNATLLKRLQLRASLVAPIFAQEILWGLLIVGQNSQPRRWEKLEIDLLKQLATQVGIAIQQARLYAQLAAANQQLLRLAQSDGLTGLANRRHFDQCLDIEWQRAIREQHPLGLILIDIDCFKQFNDTYGHQAGDDCLKAVATALTQVIARPADLVARYGGEEFVVILPNTNEQGILQIAESMRSAVQQLKIPHRSSSVCSSVSLSLGAVTWVPTPHKSPEALIGAADQALYQAKELGRNRVCLGGVRLLETT”, the protein production is reported as “failed”.
